Measurements published in the RNAGym collection of RNA variant scans (doi:10.1073/pnas.2313332121).
This sample holds only a part of the variants without activity.

B1: TPR 5TU (parent)
chain: GGAUCUUCUCGAUCUAACAAAAAAGACAAAUCUGCCACAAAGCUUGAGAGCAUCUUCGGAUGCAGAGGCGGCAGCCUUCGGUGGCGCGAUAGCGCCAACGUUCUCAACUAUGACACGCAAAACGCGUGCUCCGUUGAAUGGAGUUUAUCAUG

Variants of: B1
Test: polymerase ribozyme fitness, log enrichment relative to wild type (log ratio); higher = more active; in vitro selection for triplet polymerase activity
In short: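 A heterodimeric triplet polymerase ribozyme had each of its subunits mutagenized by PCR into a library, which was transcribed. One round of in vitro selection, done in triplicate, annealed each library with a biotinylated primer, its partner subunit and triplets, then incubated it frozen at −7 °C before gel excision of extended constructs, streptavidin-bead capture and RT-PCR. Fitness is the logarithm of genotype enrichment relative to wild-type enrichment, based on Illumina sequencing of inputs and outputs and inverse-variance-weighted replicate averages. A base-2 logarithm is used, and genotypes were kept only with ≥10 input reads and ≥1 read per output.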

Variant	polymerase ribozyme fitness (log ratio)
C14A C93U	-2.33
C14G U78A G86A	≤ -4.2
C14A A150G	-2.78
C14A C54U	-2.07
C14A C54A	-3.55
C14A A49G C54U G71A U77C G86U G143A	≤ -4.2
C14U A17U A24U C76A C85U	-3.79
C14A G84A	-1.24
C14G C63U G67C U77A C85A G124C	≤ -4.2
U13G U53A A66C G83U C149A	≤ -4.2
C14G U56A C85G G92A	≤ -4.2
C14G G88U C93A C116G U144A	≤ -4.2
C14A A19G G48U A66C A73G G84U U135A U151G	≤ -4.2
C14U C18A A19C A22G C93A A120C U139C G143U	≤ -4.2
C14U A24C U53A G67U C108U A150G	≤ -4.2
C14A G62A C85A G141A	-3.57
U13G G58C G62U U82A G86U U127C U146G	≤ -4.2
C14A U135A A142C	-3.9
C14G A26U C27G C35A A52C A91G A107G G126U U130A	≤ -4.2
C14G C18U C38U U53C G58A U90G C93G A115C C118U A137U	≤ -4.2
C14A A16C G46A G67C C85A C95A	≤ -4.2
C14A A17C A41C C96U A115U G141A	≤ -4.2
U13G U56A C76G A91U C93U	≤ -4.2
C14G C32G	-4.17

Variant	polymerase ribozyme fitness (log ratio)
U13G G136A U144C	-2.04
C14G C18G U82G G84C	≤ -4.2
C14G A28G U31A C32U G34A G42C U55G G94U	≤ -4.2
C14G A40U C43U G46A G50C C85U G112A	≤ -4.2
C14G G48C A49G U53A G92U C93U A107U	≤ -4.2
C14G A40C U55A G81C G126A U139G G140A	≤ -4.2
C14U A52C U56A A97U A98U	-4.07
C14A A16G A20G U56A U82G A106G	-3.04
C14A G83A C93G A107G	≤ -4.2
C14A U101G	-1.35
C14A C76A A89C U90G C95U A107U	≤ -4.2
C14A A16U G83A C93G C95U A98U C108G	≤ -4.2
C14A A19G G68A C99A C123U	≤ -4.2
C14A U44A G81A C85A U102G	≤ -4.2
C14G A106C C118A C123U	-4.16
C14A A26U G46A C85U C105A A113G C114A G128A A147G	≤ -4.2
C14U A16C C57G G83U C85U A107G G140C A142C	≤ -4.2
C14G C32G G141U A147C	≤ -4.2
C14A A37U A52G G83A G84A A115U	≤ -4.2
C14G C57A G92A C96U A107C G124U	≤ -4.2
C14G A24U	-3.18
C14G A24C	-3.63
C14U C27G G94C G133U A150G	≤ -4.2
C14G A26U G59C G86C G100A G136U U144A	≤ -4.2

Variant	polymerase ribozyme fitness (log ratio)
C14G G59A A73U C87G	≤ -4.2
U13G G94C C114G G143A	≤ -4.2
C14A A16G	-0.651
C14G U31A G68A G86A A91G C108A C118G	≤ -4.2
U13G U56A G71A U135C	≤ -4.2
C14U A73U U78G C87G A122U C123U	≤ -4.2
C14U C18A A28U C54A A91G U148G	≤ -4.2
U13G G46C C54U G92U	-3.24
C14A A19G A26U C79A G83U A119C	≤ -4.2
C14G A26G G58U C72U A122G	≤ -4.2
C14U C27G A37U A39G A66C U77A U78G C85U A89U C95G	≤ -4.2
C14G G88C A137U	≤ -4.2
C14A A20C C96U	-1.32
C14G U102A	-4.05
C14A A16C A28G A60G C79G A91G U109A	≤ -4.2
U13G G84A G143U	-3.44
C14A A49C C85A U90G G94U A107G G141U	≤ -4.2
C14G A23U A28C A40G G42C A89U C116G G124C U134G	≤ -4.2
C14U A20U A24U G42A A49C C57A A60C U104G C114A A115C	≤ -4.2
C14G A20U C76A	-3.92
C14U A21G A29G C85U C116A	-4.2
C14G A30U U61A G92A C99A	≤ -4.2
C14G A28G U53A C63U A89C A106U G126A G141A	≤ -4.2
C14G G25U C36A U55G G65C C75U G141C	≤ -4.2

Variant	polymerase ribozyme fitness (log ratio)
C14G A39U G58A U61G C85U C95U A107C G141C U146C	≤ -4.2
C14A A39U A73G C95G	≤ -4.2
C14G A17G C27U C96G A122G G141C	≤ -4.2
C14U A21G A49G	-2.56
C14U A20C U33A C93G C103G C118U	≤ -4.2
C14G A49G	-2.92
C14A C38A C93G	≤ -4.2
C14A A28U G46C U61A C95U U139C A150C	≤ -4.2
C14G U33C G84U G94A	-4.16
C14G A21U G59C G94A U101G A113C	≤ -4.2
U13G U31C C96A	-0.864
C14U C27U U90C A91U C116G	-3.77
C14A C54U G83U C95U U111G U134G	≤ -4.2
C14A C35U C57U G59C U134A	-4.18
C14G C87G A107G	≤ -4.2
C14A A20G C38A A39G C54U A91C A106U G124C	≤ -4.2
C14G A20G C75A C96G G141C	≤ -4.2
C14G G83A C96U A110G A142U U148A	≤ -4.2
C14U A28U C96G	≤ -4.2
C14U A64G A91U C105G	≤ -4.2
C14A A23C U56A C75G U77A C93U C95G U102C	≤ -4.2
C14U C54G C93A C95G A150G	≤ -4.2
U13G U56A	-0.285
C14G C18U U144C	-2.22

Variant	polymerase ribozyme fitness (log ratio)
C14U A26U C54U C79U G94A U111G C123U	≤ -4.2
C14A C36U U45C C87U C105A G133U	≤ -4.2
C14G A21U A60U C75A U77G A89U C95A	≤ -4.2
C14A U44G	-4.1
C14A C63U G71A C85G G100U	≤ -4.2
C14A A28U G68U G92C C125U A137C A150C	≤ -4.2
U13G G48C G81A C96A	≤ -4.2
C14G U127G	-4.18
C14A G59C U78G C96U	≤ -4.2
C14G A21C C54A G67A G94U C123U	≤ -4.2
C14G C35U C95U U101A	-3.82
C14G A23G A73G G84U A122U	≤ -4.2
C14A A23G A26U C43U C54U C57A C96G G143A	≤ -4.2
C14G A29G C54U C132G	≤ -4.2
C14G A22U A26G A28C U134A	≤ -4.2
C14A C95U	-1.38
C14A A37U C75G G94A A113G C114G C149A	≤ -4.2
C14G C87U C149A	≤ -4.2
C14A A40C G92C G143A	≤ -4.2
U13G G42A G50U C76A G86C C132A	≤ -4.2
C14A A17U A24C C57U G58C C87A	≤ -4.2
C14G U15G A19C A22C A41G G58C C93U	-3.91
C14G G92U	-2.61
U13G G65C G83A	≤ -4.2

Variant	polymerase ribozyme fitness (log ratio)
C14A G62U	-1.57
C14A A52G C85U A113C	-4.15
C14U A29U G71A G88C C93A	≤ -4.2
C14A G83A	-0.809
C14G A40C C57G	-2.31
U13G U56A G86U C131U	-4.16
C14G C18U C57U G65A G83A A106C G117U	≤ -4.2
C14A A66U G68A C72G G92U	≤ -4.2
C14A A26U A29G C57G C93A G141C	≤ -4.2
C14A A19C C93U C125A	-3.52
C14U A40G U56A G59C C76U A121U	-4.02
C14A U55A	-1.9
C14A A39U A49C C57A C79G G86U	≤ -4.2
U13G G81U G86A C105U	-3.74
U13G G92C	-2.36
C14U A17U A19C U44A G68A A73G G86U C96U C149G	≤ -4.2
C14G C38A A60G U77A U78C C87G C125A U139G	≤ -4.2
C14G A17G C32U G81A G83C	≤ -4.2
C14G A28U U55G A89U C96A G126A G128C G140C	≤ -4.2
C14A G50A C85U G126C	-4.17
C14G C85G C131A	≤ -4.2
C14G A16G A22C A60U C87U C93U A121C	≤ -4.2
C14G A137U	≤ -4.2
C14G A26U G58C A89U G117U A120C C125A	≤ -4.2

Variant	polymerase ribozyme fitness (log ratio)
C14U A115G	-2.56
C14U C18A A20C C93A G136A A142C	-2.57
C14G A39U U55G C95U	≤ -4.2
C14A A19U U56G G86U C116G C125U G133A G143C	≤ -4.2
C14G A97U A98G	-2.74
U13G U77G U145G U151G	≤ -4.2
C14G G133U	≤ -4.2
C14A G86C	-3.85
C14A A23C A66U C93A G128U U151A	≤ -4.2
C14G A22G C54U G70U C95U C96A C114U A137C	≤ -4.2
C14A C35U G58A G86A C96U	-3.96
C14U A17C C35G G141C U151A	≤ -4.2
U13G G136A A137G C149U	-3.07
C14G C96U	-2.21
U13G U55A G94A G100A G140U	-4.11
C14A A60G C85G C118G C132U	-3.89
C14A A17C C36A U44A U45A C54A C85G G88U C103G A110C	≤ -4.2
C14U C35U C85U A106G A115G	-3.81
C14G A40U A73G U104C	≤ -4.2
U13G G58A C95U C96G	-4.19
C14G G50A G58C U82C G141C	-4.17
U13G G83U C105U G117C U148A	≤ -4.2
C14G C36U U45G G59A C95U A97G A98U C125A U139G	-4.03
